Target: Atad2-tag (endogenous mouse Atad2 with a C-terminal 6xHis-Flag-Ha TAP tag, knock-in) (mouse (endogenous in 46C ES cells)) (UniProt Q8CDM1)
Assay: co-IP; anti-Flag immunoprecipitation of protein extracts of 46C^tag and parental 46C ES cells; western blot with anti-H4 and anti-acetylated H4, compared with dilutions of the input

Sequence of UniProt Q8CDM1 (Q8CDM1 whole entry): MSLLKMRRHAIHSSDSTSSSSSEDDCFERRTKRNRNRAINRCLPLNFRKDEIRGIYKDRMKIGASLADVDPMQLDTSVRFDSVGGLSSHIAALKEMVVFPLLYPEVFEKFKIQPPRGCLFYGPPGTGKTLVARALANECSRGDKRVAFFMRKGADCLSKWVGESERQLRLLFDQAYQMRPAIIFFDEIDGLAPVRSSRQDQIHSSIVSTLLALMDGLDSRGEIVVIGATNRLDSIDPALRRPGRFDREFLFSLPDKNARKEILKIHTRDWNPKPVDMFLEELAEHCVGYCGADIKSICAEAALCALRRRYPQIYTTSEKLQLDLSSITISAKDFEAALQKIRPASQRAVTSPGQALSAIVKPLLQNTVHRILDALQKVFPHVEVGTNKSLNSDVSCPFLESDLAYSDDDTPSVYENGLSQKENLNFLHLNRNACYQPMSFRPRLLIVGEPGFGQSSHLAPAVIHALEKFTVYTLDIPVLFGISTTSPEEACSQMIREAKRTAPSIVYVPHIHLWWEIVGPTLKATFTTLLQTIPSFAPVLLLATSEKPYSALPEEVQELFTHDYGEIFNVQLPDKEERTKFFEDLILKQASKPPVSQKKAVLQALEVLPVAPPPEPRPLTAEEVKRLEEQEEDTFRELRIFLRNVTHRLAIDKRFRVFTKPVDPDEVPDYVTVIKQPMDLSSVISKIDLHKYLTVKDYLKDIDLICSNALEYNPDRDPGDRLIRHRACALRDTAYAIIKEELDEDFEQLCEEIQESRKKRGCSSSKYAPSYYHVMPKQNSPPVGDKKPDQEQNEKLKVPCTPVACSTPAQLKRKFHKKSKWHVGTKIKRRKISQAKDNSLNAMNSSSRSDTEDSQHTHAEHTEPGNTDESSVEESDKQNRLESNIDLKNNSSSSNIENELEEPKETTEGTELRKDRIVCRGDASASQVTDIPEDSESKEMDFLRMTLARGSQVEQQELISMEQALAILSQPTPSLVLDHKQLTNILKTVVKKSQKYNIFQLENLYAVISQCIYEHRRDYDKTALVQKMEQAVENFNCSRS

acetylated histone H4 (from UniProt P62806 1-103) (natural protein)
fraction of the input immunoprecipitated (fraction of the input): 0.02

histone H4 (from UniProt P62806 1-103) (natural protein)
fraction of the input immunoprecipitated (fraction of the input): 0.01

From PMC4991664
